Experimental data reported in patent US7906616B2, “Truncated DANCE, DANCE complex and method of using these” (Kansai Medical University, priority 2004, dated 2011).

Experiments:
[1] = tested on: vascular endothelial cells; experiment: Vascular endothelial cell adhesion assay; assay type: cell-based; details: for cell adhesion activity: purified recombinant protein used for coating
Excerpt: Full-length DANCE promotes the adhesion and extension of vascular endothelial cells via cell surface integrin. The present inventor has reported to date that full-length DANCE can serve as a ligand for the integrins αvβ3, αvβ5, and α9β1. Since the domain serving as the ligand is considered to be around the RGD motif of the amino-terminal domain of DANCE, each recombinant protein of a DANCE mutant wherein RGD was replaced with RGE for one-amino-acid substitution (RGE DANCE), and amino-terminal cleaved form of DANCE (ΔND DANCE) were purified, and these, along with full-length DANCE, were subjected to vascular endothelial cell adhesion assay (FIG. 13).

[2] = tested on: human skin fibroblasts; experiment: Formation of elastic fibers in cultured human skin fibroblasts; assay type: cell-based; details: for formation of elastic fibers (anti-elastin immunostaining): protein added to serum-free medium at 4 μg/ml, cultured for 2 weeks
Experimental: Human fibroblasts were kindly supplied by the Department of Plastic Surgery, Kyoto University Hospital. A cover glass was placed on the bottom of a 24-well plate, on which human fibroblasts were seeded at 7.5×10^4 cells per well, and cultured in a DMEM medium supplemented with 10% FBS at 37° C. in the presence of 5% CO2. After the plate washed with PBS on Day 3, the medium was exchanged with a DMEM/F12 medium not supplemented with FBS, and purified DANCE protein, cleaved form of DANCE protein 4 μg/ml, or FBS was added. Cultivation was continued at 37° C. in the presence of 5% CO2, and the cells were fixed and immunologically stained on Day 14.
On Day 14 of cultivation, the cells were washed with 1 ml of PBS three times, after which they were fixed with 100% methanol at −20° C. for 30 minutes. After washing with PBS, the cells were subjected to blocking with a PBS containing 2% BSA at room temperature for 30 minutes, after which the cells were incubated with the polyclonal anti-elastin antibody (dilution rate 1/100) and the monoclonal anti-FLAG antibody (dilution rate 1/100) at room temperature for at least 1 hour. The cells were washed with PBS and further incubated with the anti-rabbit Alexa Fluor 488 antibody (dilution rate 1/100) and the anti-mouse Alexa Fluor 546 antibody (dilution rate 1/100) at room temperature for 1 hour. After washing with PBS, the cells were fixed with 4% para-formaldehyde at room temperature for 10 minutes and again washed with PBS, after which the sample was mounted onto a glass slide using a DAPI-containing Vectashield. Examination was performed using a confocal microscope.
Human skin fibroblasts were seeded to reach confluency; the medium was replaced with serum-free medium or a medium containing 10% fetal calf serum; the cells were cultured for 2 weeks; the formation of elastic fibers was analyzed by immunostaining with anti-elastin antibody.

[3] = target: T1, human LTBP2 (Homo sapiens, UniProt Q14767); experiment: In vitro binding assay, FLAG-tagged DANCE constructs with Myc-tagged LTBP2; details: protein solutions from 293T cells mixed on ice 1 hour, anti-FLAG precipitation, anti-Myc detection
T1 construct: The portion from the 36th amino acid to the stop codon of human LTBP2; expressed in transfected cells; host or cells: 293T cells; culture supernatant mixed with cell extract
Experimental: (§1) These were performed by methods described in “Molecular Cloning, 3rd Ed.”.
(§2) A human DANCE construct with FLAG tag (FIG. 8), a human DANCE construct with Myc tag, and a human LTBP2 construct were separately transfected to 293T cells. After cultivation in serum-free medium for 48 hours, each culture supernatant and cell extract were mixed, and this was used as the protein solution. A protein solution from the DANCE construct with FLAG tag and a protein solution from DANCE or LTBP2 with Myc tag were mixed on ice for 1 hour, and precipitated with anti-FLAG antibody, and the resulting precipitate was developed by SDS-PAGE, and detected using anti-Myc antibody or anti-FLAG antibody.

[4] = target: T2, human DANCE (Homo sapiens, UniProt Q9UBX5); experiment: In vitro binding assay, FLAG-tagged DANCE constructs with Myc-tagged DANCE; details: protein solutions from 293T cells mixed on ice 1 hour, anti-FLAG precipitation, anti-Myc detection
T2 construct: Myc; expressed in transfected cells; host or cells: 293T cells; culture supernatant mixed with cell extract
T2 sequence (Q9UBX5 24-448): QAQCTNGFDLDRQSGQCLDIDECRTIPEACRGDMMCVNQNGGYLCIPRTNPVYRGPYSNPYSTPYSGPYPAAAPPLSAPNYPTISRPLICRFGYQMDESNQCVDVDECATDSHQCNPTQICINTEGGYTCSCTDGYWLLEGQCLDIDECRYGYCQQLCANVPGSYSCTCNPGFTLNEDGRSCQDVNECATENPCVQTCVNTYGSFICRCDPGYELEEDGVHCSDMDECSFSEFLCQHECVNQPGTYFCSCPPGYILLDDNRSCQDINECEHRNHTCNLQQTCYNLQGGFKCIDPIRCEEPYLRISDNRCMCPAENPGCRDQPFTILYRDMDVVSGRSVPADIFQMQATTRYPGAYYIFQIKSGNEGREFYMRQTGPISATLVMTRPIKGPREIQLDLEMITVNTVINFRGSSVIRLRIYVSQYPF
Experimental: as §1, §2

[5] = target: T3, human lysyl oxidase (Homo sapiens, UniProt P28300); experiment: In vitro binding assay, DANCE with lysyl oxidase; details: anti-FLAG precipitation, anti-Myc detection
T3 construct: The 22nd amino acid to the 417th amino acid of the polypeptide (417 amino acids) encoded by human lysyl oxidase; expressed in transfected cells
T3 sequence (P28300 22-417): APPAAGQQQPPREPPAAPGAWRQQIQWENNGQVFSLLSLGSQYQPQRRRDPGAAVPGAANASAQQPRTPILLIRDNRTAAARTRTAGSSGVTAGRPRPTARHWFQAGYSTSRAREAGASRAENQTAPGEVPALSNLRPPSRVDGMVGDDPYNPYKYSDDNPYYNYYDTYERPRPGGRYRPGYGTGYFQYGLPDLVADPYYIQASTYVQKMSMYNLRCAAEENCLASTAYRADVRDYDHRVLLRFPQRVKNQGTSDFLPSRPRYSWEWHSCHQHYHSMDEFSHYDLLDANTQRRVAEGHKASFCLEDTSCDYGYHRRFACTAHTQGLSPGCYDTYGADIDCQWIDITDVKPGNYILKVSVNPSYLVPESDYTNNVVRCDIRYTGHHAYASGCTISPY
T3 sequence (Q9UBX5 24-448 partner): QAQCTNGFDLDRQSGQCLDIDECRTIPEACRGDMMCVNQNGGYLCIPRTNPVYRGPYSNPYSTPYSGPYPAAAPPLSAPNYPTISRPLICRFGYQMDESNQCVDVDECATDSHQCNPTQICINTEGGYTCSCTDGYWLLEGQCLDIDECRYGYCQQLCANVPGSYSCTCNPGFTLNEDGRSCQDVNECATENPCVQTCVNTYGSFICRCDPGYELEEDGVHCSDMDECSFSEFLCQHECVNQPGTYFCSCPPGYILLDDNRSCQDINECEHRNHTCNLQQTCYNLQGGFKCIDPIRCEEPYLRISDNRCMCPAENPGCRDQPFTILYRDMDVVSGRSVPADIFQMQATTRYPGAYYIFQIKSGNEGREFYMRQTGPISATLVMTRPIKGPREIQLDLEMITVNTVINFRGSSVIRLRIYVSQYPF
Experimental: The 22nd amino acid to the 417th amino acid of the polypeptide (417 amino acids) encoded by human lysyl oxidase (GenBank accession number: AF039291.1) cDNA was amplified by a PCR method and incorporated in the XbaI/NotI site of pEF6/ssMyc.
as §2
The assay was performed in the same manner as Example 6 except that a precipitate obtained using anti-FLAG antibody was developed by SDS-PAGE and detected using anti-Myc antibody.

[6] = target: T4, LTBP2 (Bos taurus, UniProt Q28019); experiment: Precipitation of DANCE-binding proteins from smooth muscle cell culture supernatant (LTBP2); details: 50 μg recombinant human DANCE mixed with 35S-labeled bovine arterial smooth muscle cell supernatant, anti-FLAG precipitation
T4 construct: host or cells: bovine arterial smooth muscle cells (culture supernatant); bait purified from stably transfected 293T cells
Experimental: (§3) After bovine arterial smooth muscle cells seeded on a 9-cm plate were labeled with 35S-Met and Cys for 24 hours, the culture supernatant and 50 μg of recombinant human DANCE (with C-terminal FLAG and 6×His) were mixed and precipitated with anti-FLAG agarose (Sigma), and the resulting precipitate was developed by SDS-PAGE and autoradiography was performed. The same culture supernatant was immunoprecipitated with commercially available antibodies against elastic fiber constituent protein (elastin, fibrillin 1, fibrillin 2 and LTBP2), and developed with the same SDS-PAGE gel, and autoradiography was performed.

[7] = target: T5, DANCE (Bos taurus, UniProt Q5EA62); experiment: Precipitation of DANCE-binding proteins from smooth muscle cell culture supernatant (homo-complex); details: 50 μg recombinant human DANCE mixed with 35S-labeled bovine arterial smooth muscle cell supernatant, anti-FLAG precipitation
T5 construct: After bovine arterial smooth muscle cells seeded on a 9-cm plate were labeled with 35S-Met and Cys for 24 hours; host or cells: bovine arterial smooth muscle cells (culture supernatant); bait purified from stably transfected 293T cells
T5 sequence (Q5EA62 24-448): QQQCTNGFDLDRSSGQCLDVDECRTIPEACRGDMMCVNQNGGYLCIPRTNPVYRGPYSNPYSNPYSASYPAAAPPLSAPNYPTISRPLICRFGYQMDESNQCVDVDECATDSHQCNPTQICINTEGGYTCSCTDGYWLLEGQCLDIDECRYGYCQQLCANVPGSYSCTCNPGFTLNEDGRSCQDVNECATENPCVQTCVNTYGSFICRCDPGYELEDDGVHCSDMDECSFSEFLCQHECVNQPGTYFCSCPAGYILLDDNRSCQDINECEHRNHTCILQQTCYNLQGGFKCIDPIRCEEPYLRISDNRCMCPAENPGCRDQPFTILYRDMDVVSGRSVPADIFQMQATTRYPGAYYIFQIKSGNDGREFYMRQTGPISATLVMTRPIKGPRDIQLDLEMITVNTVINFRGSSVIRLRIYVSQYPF
T5 sequence (Q9UBX5 24-448 partner): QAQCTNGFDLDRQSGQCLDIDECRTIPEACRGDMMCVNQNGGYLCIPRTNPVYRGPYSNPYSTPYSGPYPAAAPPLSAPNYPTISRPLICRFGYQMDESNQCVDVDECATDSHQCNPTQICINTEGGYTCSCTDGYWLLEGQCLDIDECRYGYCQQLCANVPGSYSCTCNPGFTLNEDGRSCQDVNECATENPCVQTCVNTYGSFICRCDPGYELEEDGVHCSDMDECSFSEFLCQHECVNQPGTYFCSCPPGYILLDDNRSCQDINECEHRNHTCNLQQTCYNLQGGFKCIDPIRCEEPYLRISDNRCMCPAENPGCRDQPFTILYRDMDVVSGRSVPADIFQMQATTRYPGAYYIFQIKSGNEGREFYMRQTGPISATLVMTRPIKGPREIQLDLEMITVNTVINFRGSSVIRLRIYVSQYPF
Experimental: as §3

T1 sequence (Q14767 36-1821): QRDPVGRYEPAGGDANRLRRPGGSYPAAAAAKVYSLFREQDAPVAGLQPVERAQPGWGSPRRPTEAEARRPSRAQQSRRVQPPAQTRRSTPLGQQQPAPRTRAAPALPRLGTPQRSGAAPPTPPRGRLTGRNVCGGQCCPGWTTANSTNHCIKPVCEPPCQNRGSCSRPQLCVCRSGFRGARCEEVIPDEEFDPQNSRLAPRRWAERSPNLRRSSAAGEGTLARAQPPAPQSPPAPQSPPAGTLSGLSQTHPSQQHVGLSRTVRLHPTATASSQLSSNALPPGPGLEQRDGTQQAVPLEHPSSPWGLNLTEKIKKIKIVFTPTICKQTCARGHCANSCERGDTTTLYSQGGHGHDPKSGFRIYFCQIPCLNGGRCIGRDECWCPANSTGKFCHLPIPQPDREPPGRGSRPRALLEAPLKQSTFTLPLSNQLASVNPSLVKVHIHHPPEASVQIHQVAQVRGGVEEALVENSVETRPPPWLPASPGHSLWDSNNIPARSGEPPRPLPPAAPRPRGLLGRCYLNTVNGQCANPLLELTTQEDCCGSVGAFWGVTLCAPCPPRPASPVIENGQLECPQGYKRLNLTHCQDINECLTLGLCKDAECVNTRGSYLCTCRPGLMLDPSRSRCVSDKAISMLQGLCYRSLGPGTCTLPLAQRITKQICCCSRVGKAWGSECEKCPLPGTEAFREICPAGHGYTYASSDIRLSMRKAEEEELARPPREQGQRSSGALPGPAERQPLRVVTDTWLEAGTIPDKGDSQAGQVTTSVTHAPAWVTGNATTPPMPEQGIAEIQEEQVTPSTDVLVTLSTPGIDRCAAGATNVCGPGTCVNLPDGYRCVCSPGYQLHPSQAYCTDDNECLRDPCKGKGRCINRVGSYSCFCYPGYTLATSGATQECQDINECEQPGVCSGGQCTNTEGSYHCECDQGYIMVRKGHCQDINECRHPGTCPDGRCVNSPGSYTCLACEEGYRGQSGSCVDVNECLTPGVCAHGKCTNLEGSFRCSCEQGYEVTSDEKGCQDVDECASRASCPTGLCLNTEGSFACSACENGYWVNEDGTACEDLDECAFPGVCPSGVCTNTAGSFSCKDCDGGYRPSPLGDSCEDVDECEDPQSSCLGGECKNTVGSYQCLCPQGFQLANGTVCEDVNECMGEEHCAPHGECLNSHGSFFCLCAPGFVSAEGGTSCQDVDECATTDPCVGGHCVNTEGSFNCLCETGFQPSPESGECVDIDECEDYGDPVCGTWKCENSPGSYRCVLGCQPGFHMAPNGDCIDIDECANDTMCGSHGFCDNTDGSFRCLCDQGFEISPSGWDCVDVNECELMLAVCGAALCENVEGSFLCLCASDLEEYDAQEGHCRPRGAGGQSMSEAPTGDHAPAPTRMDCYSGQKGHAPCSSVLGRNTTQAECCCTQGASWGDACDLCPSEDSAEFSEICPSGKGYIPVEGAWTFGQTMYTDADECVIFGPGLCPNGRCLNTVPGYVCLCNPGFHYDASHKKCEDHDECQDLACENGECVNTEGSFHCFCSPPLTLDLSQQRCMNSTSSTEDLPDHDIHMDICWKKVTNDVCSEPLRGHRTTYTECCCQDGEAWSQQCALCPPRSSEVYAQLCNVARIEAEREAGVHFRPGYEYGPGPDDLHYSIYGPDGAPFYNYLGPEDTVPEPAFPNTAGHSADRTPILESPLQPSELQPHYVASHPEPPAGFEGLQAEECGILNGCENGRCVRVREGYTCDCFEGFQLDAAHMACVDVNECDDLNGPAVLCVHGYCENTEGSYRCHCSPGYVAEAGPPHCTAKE
T4 sequence (Q28019 36-1842, one chain of several): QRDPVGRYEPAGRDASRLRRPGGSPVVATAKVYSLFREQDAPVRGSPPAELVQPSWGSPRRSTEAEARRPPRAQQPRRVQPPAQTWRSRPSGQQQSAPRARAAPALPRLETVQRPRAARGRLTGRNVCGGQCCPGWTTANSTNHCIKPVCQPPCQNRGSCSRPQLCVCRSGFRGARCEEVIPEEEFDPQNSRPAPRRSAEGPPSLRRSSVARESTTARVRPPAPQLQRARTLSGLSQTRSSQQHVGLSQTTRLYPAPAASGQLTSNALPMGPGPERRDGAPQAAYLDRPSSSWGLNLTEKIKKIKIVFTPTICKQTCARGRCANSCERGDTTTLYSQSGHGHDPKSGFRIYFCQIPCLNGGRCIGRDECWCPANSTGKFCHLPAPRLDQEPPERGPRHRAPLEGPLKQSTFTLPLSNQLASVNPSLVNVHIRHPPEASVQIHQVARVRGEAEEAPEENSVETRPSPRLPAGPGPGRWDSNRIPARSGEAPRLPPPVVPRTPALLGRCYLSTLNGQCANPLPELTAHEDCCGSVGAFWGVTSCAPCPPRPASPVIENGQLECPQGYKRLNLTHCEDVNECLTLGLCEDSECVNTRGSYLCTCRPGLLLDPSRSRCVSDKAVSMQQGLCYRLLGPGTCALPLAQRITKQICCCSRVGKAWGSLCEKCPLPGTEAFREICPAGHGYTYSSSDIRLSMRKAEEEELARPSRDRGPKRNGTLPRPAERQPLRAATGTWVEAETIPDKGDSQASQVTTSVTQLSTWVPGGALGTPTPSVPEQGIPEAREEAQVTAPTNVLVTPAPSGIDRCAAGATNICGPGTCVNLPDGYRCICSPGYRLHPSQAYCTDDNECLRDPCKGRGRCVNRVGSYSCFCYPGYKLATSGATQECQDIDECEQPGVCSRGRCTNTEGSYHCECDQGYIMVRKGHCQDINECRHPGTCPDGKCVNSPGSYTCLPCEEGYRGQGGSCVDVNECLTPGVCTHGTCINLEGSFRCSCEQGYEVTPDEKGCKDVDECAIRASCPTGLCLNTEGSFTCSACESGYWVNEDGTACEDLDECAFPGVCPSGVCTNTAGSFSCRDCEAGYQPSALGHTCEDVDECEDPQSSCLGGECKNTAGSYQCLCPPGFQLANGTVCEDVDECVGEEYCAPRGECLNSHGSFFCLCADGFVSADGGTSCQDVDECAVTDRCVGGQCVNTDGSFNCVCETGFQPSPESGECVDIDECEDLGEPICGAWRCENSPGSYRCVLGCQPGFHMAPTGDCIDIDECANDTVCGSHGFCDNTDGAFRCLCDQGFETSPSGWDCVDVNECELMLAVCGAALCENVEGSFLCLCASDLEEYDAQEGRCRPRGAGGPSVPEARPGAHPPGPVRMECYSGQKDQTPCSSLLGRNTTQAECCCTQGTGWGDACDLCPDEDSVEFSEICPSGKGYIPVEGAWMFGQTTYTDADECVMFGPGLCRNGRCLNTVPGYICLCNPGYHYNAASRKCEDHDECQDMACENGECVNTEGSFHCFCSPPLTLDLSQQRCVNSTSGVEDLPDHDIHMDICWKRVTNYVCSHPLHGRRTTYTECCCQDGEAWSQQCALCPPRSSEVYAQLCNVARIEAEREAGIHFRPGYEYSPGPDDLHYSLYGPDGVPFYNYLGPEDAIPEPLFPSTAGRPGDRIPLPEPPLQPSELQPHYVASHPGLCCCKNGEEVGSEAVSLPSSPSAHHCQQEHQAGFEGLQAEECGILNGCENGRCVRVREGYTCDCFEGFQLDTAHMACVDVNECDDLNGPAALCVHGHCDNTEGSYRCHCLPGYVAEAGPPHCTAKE

B1: ΔND DANCE: amino-terminal cleaved form of DANCE; 78th to 448th amino acids of SEQ ID NO:2 (SEQ ID NO:8) (protein, listed as Homo sapiens)
chain: GPYSNPYSTPYSGPYPAAAPPLSAPNYPTISRPLICRFGYQMDESNQCVDVDECATDSHQCNPTQICINTEGGYTCSCTDGYWLLEGQCLDIDECRYGYCQQLCANVPGSYSCTCNPGFTLNEDGRSCQDVNECATENPCVQTCVNTYGSFICRCDPGYELEEDGVHCSDMDECSFSEFLCQHECVNQPGTYFCSCPPGYILLDDNRSCQDINECEHRNHTCNLQQTCYNLQGGFKCIDPIRCEEPYLRISDNRCMCPAENPGCRDQPFTILYRDMDVVSGRSVPADIFQMQATTRYPGAYYIFQIKSGNEGREFYMRQTGPISATLVMTRPIKGPREIQLDLEMITVNTVINFRGSSVIRLRIYVSQYPF
binding to cell surface integrin ([1]; discussion statement): no longer binds to cell surface integrin | cell adhesion activity [1]: absolutely no cell adhesion activity | formation of elastic fibers (anti-elastin immunostaining) [2]: the formation of elastic fibers was very little | binding of DANCE to LTBP2 [3]: stronger binding with LTBP2 than full-length DANCE | binding of DANCE to each other [4]: no longer binds to each other

B2: DANCE: secretory protein (developmental arteries and neural crest EGF-like; fibulin-5), SEQ ID NO:2 or 4; recombinant human form with C-terminal FLAG and 6×His (protein, listed as Homo sapiens)
chain: MPGIKRILTVTILALCLPSPGNAQAQCTNGFDLDRQSGQCLDIDECRTIPEACRGDMMCVNQNGGYLCIPRTNPVYRGPYSNPYSTPYSGPYPAAAPPLSAPNYPTISRPLICRFGYQMDESNQCVDVDECATDSHQCNPTQICINTEGGYTCSCTDGYWLLEGQCLDIDECRYGYCQQLCANVPGSYSCTCNPGFTLNEDGRSCQDVNECATENPCVQTCVNTYGSFICRCDPGYELEEDGVHCSDMDECSFSEFLCQHECVNQPGTYFCSCPPGYILLDDNRSCQDINECEHRNHTCNLQQTCYNLQGGFKCIDPIRCEEPYLRISDNRCMCPAENPGCRDQPFTILYRDMDVVSGRSVPADIFQMQATTRYPGAYYIFQIKSGNEGREFYMRQTGPISATLVMTRPIKGPREIQLDLEMITVNTVINFRGSSVIRLRIYVSQYPF
modifications: C-terminal FLAG and 6xHis tags
notes: secretory protein (developmental arteries and neural crest EGF-like); recombinant human form with C-terminal FLAG and 6×His
binding to lysyl oxidase [5]: suggested to bind to lysyl oxidase | binding to LTBP2 [6]: binds to LTBP2 | cell adhesion activity [1]: cell adhesion was promoted with dependence on the concentration of the protein used for coating | formation of elastic fibers (anti-elastin immunostaining) [2]: elastic fibers were formed at a higher level than with the serum-containing medium | localization of the added recombinant protein (anti-FLAG antibody) ([2]; serum-free medium, 4 μg/ml): co-localized with the elastic fibers formed | formation of a homo-complex [7]: forms a homo-complex
